In PMC2835651:

System: Cc1cn([C@H]2C[C@H](O)[C@@H](COP(=O)(O)OP(=O)(O)OP(=O)(O)O)O2)c(=O)[nH]c1=O
Assay: purified protein
Conditions: poly(rA)/oligo(dT)15 template/primer; 25-250 μM TTP; labelled compound

In the case of PFV PR-RT (Human spumaretrovirus), the Km is reported as 45 (± 12) μM and the kcat is reported as 7.1 s⁻¹.
